Results as given in patent US8865654B2, “Eye drops” (Santen Pharmaceutical Co., Ltd., priority 2009, dated 2014).
No end group written: not given here.

Assay: Stability test of eye drop (residual ratio by HPLC after storage at 40° C.)
Format: physicochemical
Details: eye drop SSSR acetate 0.003% + FGLM hydrochloride 0.05% (w/v)
Description: Each sample (100 mL, eye drop) containing the SSSR acetate at 0.003% (w/v) and the FGLM hydrochloride at 0.05% (w/v) was prepared at a pH in a range of 2.5 to 7.0 and stored at 40° C. The concentrations of the SSSR and the FGLM were measured by the HPLC method after 2 months storage, 3 months storage, and 6 months storage, and the residual ratios of the SSSR and the FGLM were determined, respectively.

With “Ser-Ser-Ser-Arg (SSSR; printed: Ser-Ser-Ser-Arg) [partial peptide of insulin-like growth factor I, used as acetate]” the “Residual ratio of SSSR” value (pH 2.5, 40° C., 2 months) was 100%, the “Residual ratio of SSSR” value (pH 2.5, 40° C., 3 months) was 100% and the “Residual ratio of SSSR” value (pH 2.5, 40° C., 6 months) was 100%. For the same substance, the “Residual ratio of SSSR” value (pH 3.0, 40° C., 2 months) was 99%, the “Residual ratio of SSSR” value (pH 3.0, 40° C., 3 months) was 96% and the “Residual ratio of SSSR” value (pH 3.0, 40° C., 6 months) was 98%. For the same substance, the “Residual ratio of SSSR” value (pH 3.5, 40° C., 2 months) was 99%, the “Residual ratio of SSSR” value (pH 3.5, 40° C., 3 months) was 96% and the “Residual ratio of SSSR” value (pH 3.5, 40° C., 6 months) was 93%. The “Residual ratio of SSSR” value (pH 4.0, 40° C., 2 months) was 98%, the “Residual ratio of SSSR” value (pH 4.0, 40° C., 3 months) was 97% and the “Residual ratio of SSSR” value (pH 4.0, 40° C., 6 months) was 92%. For the same substance, the “Residual ratio of SSSR” value (pH 4.5, 40° C., 2 months) was 97%, the “Residual ratio of SSSR” value (pH 4.5, 40° C., 3 months) was 97% and the “Residual ratio of SSSR” value (pH 4.5, 40° C., 6 months) was 89%. The “Residual ratio of SSSR” value (pH 5.0, 40° C., 2 months) was 97%, the “Residual ratio of SSSR” value (pH 5.0, 40° C., 3 months) was 87% and the “Residual ratio of SSSR” value (pH 5.0, 40° C., 6 months) was 81%. For the same substance, the “Residual ratio of SSSR” value (pH 5.5, 40° C., 2 months) was 94%, the “Residual ratio of SSSR” value (pH 5.5, 40° C., 3 months) was 86% and the “Residual ratio of SSSR” value (pH 5.5, 40° C., 6 months) was 80%. The “Residual ratio of SSSR” value (pH 6.0, 40° C., 2 months) was 90%, the “Residual ratio of SSSR” value (pH 6.0, 40° C., 3 months) was 77% and the “Residual ratio of SSSR” value (pH 6.0, 40° C., 6 months) was 68%. For the same substance, the “Residual ratio of SSSR” value (pH 6.5, 40° C., 2 months) was 84%, the “Residual ratio of SSSR” value (pH 6.5, 40° C., 3 months) was 67% and the “Residual ratio of SSSR” value (pH 6.5, 40° C., 6 months) was 51%. The “Residual ratio of SSSR” value (pH 7.0, 40° C., 2 months) was 70%, the “Residual ratio of SSSR” value (pH 7.0, 40° C., 3 months) was 51% and the “Residual ratio of SSSR” value (pH 7.0, 40° C., 6 months) was 35%.
With “Phe-Gly-Leu-Met-NH2 (FGLM-NH2) [tetrapeptide at the C-terminal of Substance P, used as hydrochloride]” the “Residual ratio of FGLM” value (pH 2.5, 40° C., 2 months) was 79%, the “Residual ratio of FGLM” value (pH 2.5, 40° C., 3 months) was 72% and the “Residual ratio of FGLM” value (pH 2.5, 40° C., 6 months) was 54%. For the same substance, the “Residual ratio of FGLM” value (pH 3.0, 40° C., 2 months) was 91%, the “Residual ratio of FGLM” value (pH 3.0, 40° C., 3 months) was 89% and the “Residual ratio of FGLM” value (pH 3.0, 40° C., 6 months) was 79%. The “Residual ratio of FGLM” value (pH 3.5, 40° C., 2 months) was 95%, the “Residual ratio of FGLM” value (pH 3.5, 40° C., 3 months) was 94% and the “Residual ratio of FGLM” value (pH 3.5, 40° C., 6 months) was 90%. For the same substance, the “Residual ratio of FGLM” value (pH 4.0, 40° C., 2 months) was 96%, the “Residual ratio of FGLM” value (pH 4.0, 40° C., 3 months) was 96% and the “Residual ratio of FGLM” value (pH 4.0, 40° C., 6 months) was 94%. The “Residual ratio of FGLM” value (pH 4.5, 40° C., 2 months) was 97%, the “Residual ratio of FGLM” value (pH 4.5, 40° C., 3 months) was 97% and the “Residual ratio of FGLM” value (pH 4.5, 40° C., 6 months) was 96%. For the same substance, the “Residual ratio of FGLM” value (pH 5.0, 40° C., 2 months) was 97%, the “Residual ratio of FGLM” value (pH 5.0, 40° C., 3 months) was 97% and the “Residual ratio of FGLM” value (pH 5.0, 40° C., 6 months) was 97%. For the same substance, the “Residual ratio of FGLM” value (pH 5.5, 40° C., 2 months) was 97%, the “Residual ratio of FGLM” value (pH 5.5, 40° C., 3 months) was 97% and the “Residual ratio of FGLM” value (pH 5.5, 40° C., 6 months) was 96%. The “Residual ratio of FGLM” value (pH 6.0, 40° C., 2 months) was 96%, the “Residual ratio of FGLM” value (pH 6.0, 40° C., 3 months) was 96% and the “Residual ratio of FGLM” value (pH 6.0, 40° C., 6 months) was 95%. For the same substance, the “Residual ratio of FGLM” value (pH 6.5, 40° C., 2 months) was 95%, the “Residual ratio of FGLM” value (pH 6.5, 40° C., 3 months) was 95% and the “Residual ratio of FGLM” value (pH 6.5, 40° C., 6 months) was 93%. For the same substance, the “Residual ratio of FGLM” value (pH 7.0, 40° C., 2 months) was 94%, the “Residual ratio of FGLM” value (pH 7.0, 40° C., 3 months) was 93% and the “Residual ratio of FGLM” value (pH 7.0, 40° C., 6 months) was 90%.
